Assay [1] addresses rabbit polyclonal anti-BSA antibody (IgG) (rabbit) (UniProt P01870). The assay is described as follows: SPR; pH 4.0. Background: In SPR one partner is held on a chip, and binding of the other changes the refractive index at the surface.
The target is the same in assay [2]. Kind of assay: SPR; pH 4.6.
Assay [3] shares this target. Kind of assay: SPR; pH 7.5.
The target in assay [4] is VRC01 D265R mutant antibody (human). The assay is described as follows: BLI; Octet R8; VRC01 or D265R mutant captured on Protein A biosensors (~5 nm); serial dilutions of FcγRI (Zymogenetics); 10mM Hepes pH7.5, 0.15M NaCl; 1:1 binding model. In general terms: Biolayer interferometry detects binding as a change in optical thickness at a sensor tip.
Chain of VRC01 D265R mutant antibody (human) (light, as listed by the source, chain 2 of 2, other chains not shown): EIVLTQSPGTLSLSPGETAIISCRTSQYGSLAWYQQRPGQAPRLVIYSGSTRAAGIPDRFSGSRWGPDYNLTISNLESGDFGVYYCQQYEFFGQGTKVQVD
For assay [5], the target named is VRC01, human IgG1 isotype anti-gp120 antibody, wildtype (human). The assay is described as above.
Chain of VRC01, human IgG1 isotype anti-gp120 antibody, wildtype (human) (light, as listed by the source, chain 2 of 2, other chains not shown): as above
Assay [6] deals with human plasma IgG4 (human). Kind of assay: SPR; BIAcore 3000; human IgG subclass immobilised on CM5 chip by amine coupling (200-1000 RU); wild type FcγRI as analyte; kinetic curve fitting.
Assay [7] concerns the target human IgG2 (human). The description is as above.
The target of assay [8] is human plasma IgG3 (human). Described as above.
Assay [9] concerns the target human plasma IgG4 (human). The assay is described as follows: SPR; BIAcore 3000; human IgG subclass immobilised on CM5 chip by amine coupling (200-1000 RU); FcγRI mutants as analytes; steady-state fitting.
The target of assay [10] is human IgG2 (human). The assay is described as above.
Assay [11] deals with human plasma IgG3 (human). The description is as above.

Chain of rabbit polyclonal anti-BSA antibody (IgG) (rabbit) (P01870 whole entry, looked up): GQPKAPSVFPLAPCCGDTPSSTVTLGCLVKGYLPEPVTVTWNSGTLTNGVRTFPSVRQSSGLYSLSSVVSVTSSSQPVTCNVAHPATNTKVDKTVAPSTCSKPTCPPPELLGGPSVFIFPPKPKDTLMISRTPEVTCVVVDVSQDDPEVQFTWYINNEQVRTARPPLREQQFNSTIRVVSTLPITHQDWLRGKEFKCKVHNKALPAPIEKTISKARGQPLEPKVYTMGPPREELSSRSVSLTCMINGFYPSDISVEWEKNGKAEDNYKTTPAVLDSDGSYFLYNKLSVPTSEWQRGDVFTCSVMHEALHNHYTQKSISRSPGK
Chain of recombinant human FcγRI, wildtype (P12314 21-282): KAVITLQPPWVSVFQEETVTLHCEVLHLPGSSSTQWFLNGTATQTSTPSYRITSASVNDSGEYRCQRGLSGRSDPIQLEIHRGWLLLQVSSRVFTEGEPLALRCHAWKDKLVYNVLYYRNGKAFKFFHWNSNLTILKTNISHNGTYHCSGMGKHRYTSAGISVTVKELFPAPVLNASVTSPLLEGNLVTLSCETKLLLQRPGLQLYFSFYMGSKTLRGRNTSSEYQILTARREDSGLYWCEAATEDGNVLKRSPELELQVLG

The Kd is the free concentration of one partner at which half of the binding sites on the other are occupied at equilibrium, for simple one-to-one binding. Turning to BSA, the Kd in assay [1] came out at 1.8 nM; in [2] it was 10.1 nM; in [3], 7.8 nM.

Turning to “recombinant human FcγRI, wildtype (from UniProt P12314 21-282) (receptor)”, the dissociation constant Kd in [4] is 1160 nM; in [5], 12 nM; in [6], 65.7 nM; in the assay with human IgG2 (human) [7] it was 41 nM; in assay [8], 28.6 nM.

“FcγRI H174R variant (bovine FG-loop variant of human FcγRI) (from UniProt P12314 21-282) (receptor)”: the Kd in [9] was 109 nM; with human IgG2 (human) [10], 32.8 nM; in assay [11], 24.2 nM.

The values above are taken from publication PMC9940316.
